Laboratory results as given in patent US20230167182A1 (BIOSION, published 2023).

Legend:
[1] = target: T1, macaca IL6R-his protein (macaca mulatta); experiment: SPR Biacore T200; mAb captured by anti-mouse IgG on CM5, antigen in flow, 1:1 fit
T1 chain: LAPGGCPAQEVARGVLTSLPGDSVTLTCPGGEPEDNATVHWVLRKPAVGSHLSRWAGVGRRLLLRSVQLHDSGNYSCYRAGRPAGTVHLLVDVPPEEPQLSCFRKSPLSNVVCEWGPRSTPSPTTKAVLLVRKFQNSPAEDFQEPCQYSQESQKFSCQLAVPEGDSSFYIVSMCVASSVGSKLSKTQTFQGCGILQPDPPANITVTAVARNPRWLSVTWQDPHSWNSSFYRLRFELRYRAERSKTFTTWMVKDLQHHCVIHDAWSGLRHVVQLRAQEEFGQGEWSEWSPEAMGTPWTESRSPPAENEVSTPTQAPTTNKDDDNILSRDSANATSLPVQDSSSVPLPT
Description: (§1) Un-reacted moieties on the biosensor surface were blocked with ethanolamine. […] Then, serially diluted recombinant human IL6R-his (in house made, amino acid sequence set forth in SEQ ID NO: 44) or macaca IL6R-his protein (in house made, amino acid sequence set forth in SEQ ID NO: 45), starting at 100 nM with a 2-fold serial dilution in HBS-EP⁺ buffer (provided by Biacore), was flowed onto the chip at a flow rate of 30 μL/min. The antigen-antibody association kinetics was followed for 2 minutes and the dissociation kinetics was followed for 10 minutes. The association and dissociation curves were fit to a 1:1 Langmuir binding model using BIAcore evaluation software.

[2] = target: T2, recombinant human IL6R-his (human, UniProt P08887 20-365); experiment: as above
T2 construct: In house made; the entry includes the C-terminal His tag; also called human IL6R-his protein
T2 sequence: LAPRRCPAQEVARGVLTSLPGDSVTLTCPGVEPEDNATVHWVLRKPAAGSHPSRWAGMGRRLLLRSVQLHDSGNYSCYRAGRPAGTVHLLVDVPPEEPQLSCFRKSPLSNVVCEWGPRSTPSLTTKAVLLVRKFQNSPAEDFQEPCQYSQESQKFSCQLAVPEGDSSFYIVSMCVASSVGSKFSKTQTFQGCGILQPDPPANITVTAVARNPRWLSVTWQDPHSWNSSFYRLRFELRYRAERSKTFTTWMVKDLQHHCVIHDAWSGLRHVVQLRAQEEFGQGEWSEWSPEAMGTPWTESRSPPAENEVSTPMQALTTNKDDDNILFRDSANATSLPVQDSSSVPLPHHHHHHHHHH
Description: as §1

[3] = target: T3, human IL6R-Fc protein (human, biotin-labeled in the ELISAs (sites not given)); experiment: capture ELISA: antibody captured on anti-IgG F(ab')2 coated plate, then biotin-labeled human IL6R-Fc, streptavidin-HRP
T3 construct: In house made; also called biotin-labeled human IL6R-Fc protein
Description: For the capture ELISA, 96-well micro plates were coated with 2 μg/ml AffiniPure Goat Anti-Mouse IgG, F(ab′)₂ fragment specific (Jackson ImmunoResearch Laboratories, Inc., Cat #115-005-072) in PBS, 100 μl/well, and incubated for 2 hours at 37° C. Plates were washed once with wash buffer (PBS+0.05% v/v Tween-20, PBST) and then blocked with 200 μl/well blocking buffer (5% w/v non-fatty milk in PBST) overnight at 4° C. […] Plates containing captured anti-IL6R antibodies were incubated with biotin-labeled human IL6R-Fc protein (prepared in house, SEQ ID NO: 43, 39.5 ng/ml in 2.5% w/v non-fatty milk in PBST, 100 μl/well) for 40 minutes at 37° C., washed 4 times, and incubated with streptavidin conjugated HRP (1:10000 dilution in PBST, Jackson ImmunoResearch Laboratories, Inc., Cat #016-030-084, 100 μl/well) for 40 minutes at 37° C. After a final wash, plates were incubated with 100 μl/well ELISA substrate TMB (InnoReagents, Cat #TMB-S-002). The reaction was stopped 3-10 minutes later at room temperature with 50 μl/well 1M H₂SO₄, and the absorbance of each well was read on a microplate reader using dual wavelength mode at 450 nm for TMB and 630 nm as the reference wavelength. Then the OD (450-630) values were plotted against antibody concentration. Data was analyzed using Graphpad Prism software and EC₅₀ values were reported.
Target sequence in this assay (chain, as listed by the source limits assumed): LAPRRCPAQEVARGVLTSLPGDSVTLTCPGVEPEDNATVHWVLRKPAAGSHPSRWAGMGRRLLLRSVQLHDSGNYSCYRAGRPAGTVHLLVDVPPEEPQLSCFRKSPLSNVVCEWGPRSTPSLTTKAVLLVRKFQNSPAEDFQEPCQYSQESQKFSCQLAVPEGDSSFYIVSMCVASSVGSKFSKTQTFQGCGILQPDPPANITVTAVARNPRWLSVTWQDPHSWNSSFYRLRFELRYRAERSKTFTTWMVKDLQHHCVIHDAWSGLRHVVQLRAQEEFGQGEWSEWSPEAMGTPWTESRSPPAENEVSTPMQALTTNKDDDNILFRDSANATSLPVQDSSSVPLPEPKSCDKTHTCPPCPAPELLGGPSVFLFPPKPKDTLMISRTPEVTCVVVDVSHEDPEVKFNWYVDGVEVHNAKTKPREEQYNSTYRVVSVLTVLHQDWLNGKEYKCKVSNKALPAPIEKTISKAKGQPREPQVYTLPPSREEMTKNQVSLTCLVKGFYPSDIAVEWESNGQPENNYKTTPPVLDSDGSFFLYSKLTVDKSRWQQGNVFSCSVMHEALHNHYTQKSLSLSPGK

[4] = target: T3, human IL6R-Fc protein; experiment: ligand blocking ELISA: antibody pre-incubated with biotin-labeled human IL6R-Fc, added to plate-coated human IL6 (blocked ligand: human IL6)
Target sequence in this assay (chain, as listed by the source limits assumed): as above

[5] = target: T3, human IL6R-Fc protein; experiment: benchmark blocking ELISA: antibody pre-incubated with biotin-labeled human IL6R-Fc, added to plate-coated Tocilizumab (competitor: Tocilizumab)
Description: ELISA plates were washed once with wash buffer (PBS+0.05% v/v Tween-20, PBST) and then blocked with 200 μl/well blocking buffer (5% w/v non-fatty milk in PBST) overnight at 4° C.
The next day, the anti-IL6R antibodies of the disclosure or controls were diluted with biotin labeled human IL6R-Fc protein (SEQ ID NO: 43, 13.6 ng/ml in 2.5% w/v non-fatty milk in PBST), starting at 100 nM with a 5-fold serial dilution, and incubated at room temperature for 40 minutes. […] After incubation at 37° C. for 40 minutes, plates were washed 4 times using wash buffer. Then streptavidin conjugated HRP was added, and the plates were incubated for 40 minutes at 37° C. The plates were finally washed using wash buffer, and added with TMB. The reaction was stopped using 1M […], and the absorbance was read on a microplate reader using dual wavelength mode with 450 nm for TMB and 630 nm as the reference wavelength. The OD (450-630) values were plotted against antibody concentration. Data was analyzed using Graphpad Prism software and IC₅₀ values were reported.

B1: mouse anti-IL6R monoclonal antibody 1H9 (antibody, V domains shown)
VH: QVQLQQPGAELVKPGASVKLSCKASGYTFTSYWMHWVKLRPGQGLEWIGEINPTNGRTNYYEKFKNRATLTADKSSSTAYMQLSSLTFEDSAVYFCAKFHYSRWYFDVWGTGTTVTVSS
VL: DIVMTQSQKFMSTSVGDRVSITCKASQNVGTAVVWYQQKPGQSPKLLINPASNRYTGVPDRFTGSGSGTDFTLTISNMQSEDLADYFCQQYSSYPLTFGAGTKLELK
notes: Mouse hybridoma mAb
- Kd [1]: 1650 pM
- koff [1]: 0.000155 s⁻¹
- kon [1]: 94100 M⁻¹ s⁻¹
- Kd [2]: 1080 pM
- koff [2]: 0.00012 s⁻¹
- kon [2]: 112000 M⁻¹ s⁻¹
- EC50 [3]: 67.9 pM

B2: Chimeric 1H7 (antibody, human IgG1, kappa, V domains shown)
VH: QVQLQQPGTELVKPGASVKLSCKASGYTFTNYWMHWVKQRPGQGLDWIGEINPTNGRTNYNENFKSKATLTVDKSSSTAYMQLSSLTSEDSAVYYCARLNTHYVFDSWGQGTTLTLSS
VL: EIVLTQSPTTLAASPGEKITFTCSVSSSISSNYLHWYQQKPGFSPKLLISRTSTLASGVPARFSGSGSGTSYSLTIGTMEAEDVATYYCQQGSGIPFTFGSGTKLELKR
notes: Mouse variable regions on human IgG1 / human kappa constant regions; also called chimeric antibody 1H7
- IC50 [4]: 261 pM

B3: mouse anti-IL6R monoclonal antibody 1F7 (antibody, V domains shown)
VH: QVQLQQPGAELVKPGASVKLSCKASDYTFTSYWMHWVKQRPGQGLEWIGEINPSNGRTNYNEKFKNKATLTVDKSSSTAYVQLYSLTSEDSAVYYCARLSIHYVFDYWGQGTTLTVSS
VL: ELVLTQSPTTMAASPGEKITFTCSASSSISSNYLHWYQQKPGFSPKLLISGTSNLASGVPPRFSGSGSGTSYSLTIVTMEAEDVATYYCQQGSGIPFTFGSGTKLEIK
notes: Mouse hybridoma mAb
- Kd [1]: 523 pM
- koff [1]: 6.46e-05 s⁻¹
- kon [1]: 124000 M⁻¹ s⁻¹
- Kd [2]: 537 pM
- koff [2]: 7.46e-05 s⁻¹
- kon [2]: 139000 M⁻¹ s⁻¹
- EC50 [3]: 59.4 pM

B4: mouse anti-IL6R monoclonal antibody 1H7 (antibody, V domains shown)
VH: QVQLQQPGTELVKPGASVKLSCKASGYTFTNYWMHWVKQRPGQGLDWIGEINPTNGRTNYNENFKSKATLTVDKSSSTAYMQLSSLTSEDSAVYYCARLNTHYVFDSWGQGTTLTLSS
VL: EIVLTQSPTTLAASPGEKITFTCSVSSSISSNYLHWYQQKPGFSPKLLISRTSTLASGVPARFSGSGSGTSYSLTIGTMEAEDVATYYCQQGSGIPFTFGSGTKLELK
notes: Mouse hybridoma mAb
- Kd [1]: 229 pM
- koff [1]: 3.14e-05 s⁻¹
- kon [1]: 137000 M⁻¹ s⁻¹
- Kd [2]: 308 pM
- koff [2]: 4.73e-05 s⁻¹
- kon [2]: 153000 M⁻¹ s⁻¹
- EC50 [3]: 43.6 pM
- IC50 [4]: 230 pM

B5: mouse anti-IL6R monoclonal antibody 1A3 (antibody, V domains shown)
VH: QVQLQQPGAELVKPGASVKLSCKASGYTFTSYWMHWVKQRPAQGLEWIGEINPSNGRTNFNEKFKTKATLTVDKSSNTAYMQLSSLTSEDSAVYSCLRLNTHYVFDYWGQGTTLTVSS
VL: EIVLTQSPTTMAASPGEKITITCSASSSISSNYLHWYQQKPGFSPKLLISRTSNLASGVPTRFSGSGSGTSYSLTIGTMEAGDVATYYCQQGSGIPFTFGSGTKLEIK
notes: Mouse hybridoma mAb purified on Protein A
- Kd [1]: 328 pM
- koff [1]: 4.54e-05 s⁻¹
- kon [1]: 139000 M⁻¹ s⁻¹
- Kd [2]: 293 pM
- koff [2]: 4.32e-05 s⁻¹
- kon [2]: 148000 M⁻¹ s⁻¹
- EC50 [3]: 73 pM

B6: mouse anti-IL6R monoclonal antibody 3C2 (antibody, V domains shown)
VH: QVQLQQPGTELVKPGASVKLSCKASGYTFTTYWIHWVKQRPGQGLEWIGEINPSNGRTNYNEHFKSKATLTVDKSSSTASMQLSSLTSADSAVYYCARLNTHYVFDSWGQGTTLTVSS
VL: EIVLTQSPTTMAASPGEKITITCSASSSISSNYLHWYQQKPGFSPKLLIYRTSNLASGVPTHFSGSGSGTSYSLTIGTMEAEDVATYYCQQGSGIPFTFGSGTKLEIK
notes: Mouse hybridoma mAb
- Kd [1]: 977 pM
- koff [1]: 0.000127 s⁻¹
- kon [1]: 130000 M⁻¹ s⁻¹
- Kd [2]: 911 pM
- koff [2]: 0.000135 s⁻¹
- kon [2]: 148000 M⁻¹ s⁻¹
- EC50 [3]: 53.6 pM
- IC50 [5]: 708 pM

B7: mouse anti-IL6R monoclonal antibody 1D4 (antibody, V domains shown)
VH: QVQLQQPGAELVKPGASVKLSCKASGYTFTSYWMHWVKVRPGQGLEWIGEINPTNGRTNYNEDFKSKATLTVNSSSSTAYMQLSSLTSEDSAVYYCARLNTHYVFDYWGQGTTLTVSS
VL: EIVLTQSPTILAASPGEKITFTCSVSSSISSNYLHWYQQKPGFSPKLLIYRTSNLASGVPARFSGSGSGTSYSLTIGTMEAEDVATYYCQQGSGIPFTFGSGTKLEIK
notes: Mouse hybridoma mAb
- Kd [1]: 600 pM
- koff [1]: 7.39e-05 s⁻¹
- kon [1]: 123000 M⁻¹ s⁻¹
- Kd [2]: 628 pM
- koff [2]: 8.64e-05 s⁻¹
- kon [2]: 138000 M⁻¹ s⁻¹
- EC50 [3]: 55.8 pM

B8: mouse anti-IL6R monoclonal antibody 1B5 (antibody, V domains shown)
VH: QVQLQQPGAELVKPGASVKLSCKASGYTFTSYWMHWVKQRPGQGLEWIGEINPSNGRTNYNENFKSKATLTVDKSSSTAYMQLSSLTSEDSAVYYCARLNTHYVFDYWGQGTTLTVSS
VL: EIVLTQSPTILAASPGEKITFTCSVSSSISSNYLHWYQQKPGFSPKLLIYRTSNLASGVPARFSGSGSGTSYSLTIGTMEAEDVATYYCQQGSGIPFTFGSGTKLEIK
notes: Mouse hybridoma mAb
- Kd [1]: 609 pM
- koff [1]: 7.86e-05 s⁻¹
- kon [1]: 129000 M⁻¹ s⁻¹
- Kd [2]: 476 pM
- koff [2]: 6.7e-05 s⁻¹
- kon [2]: 141000 M⁻¹ s⁻¹
- EC50 [3]: 37.2 pM
- IC50 [4]: 281 pM

B9: mouse anti-IL6R monoclonal antibody 1G1 (antibody, V domains shown)
VH: QVQLQQPGAELVKPGASVKLSCKASGYTFTSYWMHWVKVRPGQGLEWIGEINPTNGRTNYNEDFKSKATLTVESSSSTAYMQFSSLTSEDSAVYYCARLNTHYVFDYWGQGTTLTVSS
VL: EIVLTQSPTILAASPGEKITFTCSVSSSISSNYLHWYQQKPGFSPKLLIYRTSNLASGVPARFSGSGSGTSYSLTIGTMEAEDVATYYCQQGSGIPFTFGSGTKLEIK
notes: Mouse hybridoma mAb
- Kd [1]: 736 pM
- koff [1]: 8.85e-05 s⁻¹
- kon [1]: 120000 M⁻¹ s⁻¹
- Kd [2]: 647 pM
- koff [2]: 9.09e-05 s⁻¹
- kon [2]: 141000 M⁻¹ s⁻¹
- EC50 [3]: 85 pM
- IC50 [5]: 481 pM

B10: Tocilizumab (antibody, human IgG1, kappa, V domains shown)
VH: QVQLQESGPGLVRPSQTLSLTCTVSGYSITSDHAWSWVRQPPGRGLEWIGYISYSGITTYNPSLKSRVTMLRDTSKNQFSLRLSSVTAADTAVYYCARSLARTTAMDYWGQGSLVTVSS
VL: DIQMTQSPSSLSASVGDRVTITCRASQDISSYLNWYQQKPGKAPKLLIYYTSRLHSGVPSRFSGSGSGTDFTFTISSLQPEDIATYYCQQGNTLPYTFGQGTKVEIKR
notes: In house made; also called benchmark; Actemra
- IC50 [4]: 773 pM
- IC50 [5]: 2230 pM
